Data as given in patent CN114736300A (SUZHOU ABCARTA MEDICAL TECH CO LTD, dated 2022).
No end group written: not given here.

Experiments:
HER2蛋白 (表达HER2蛋白的细胞) [1] = target: HER2蛋白 (表达HER2蛋白的细胞) (UniProt P04626); assay: flow cytometry on 1×10^6 cells expressing HER2, 0.5 μg antibody, Alexa Fluor 488 goat anti-rabbit secondary
HER2蛋白 (表达HER2蛋白的细胞) [2] = target: HER2蛋白 (表达HER2蛋白的细胞) (UniProt P04626); assay: flow cytometry on cells expressing HER2, against the blank control without antibody
HER2抗原合成多肽 (SEQ ID No.1) = target: T1, HER2抗原合成多肽 (SEQ ID No.1) (not fully specified; also: coupled to KLH or OVA for immunisation); assay: ELISA screening of hybridoma clones on the HER2 antigen (SEQ ID NO.1)
T1 construct: It was coupled to KLH or OVA for immunisation; also called HER2的多肽
T1 peptide: PTAENPEYLGLDVPV

MFI (HER2蛋白 (表达HER2蛋白的细胞) [1]): 2480
fold MFI against the blank control (HER2蛋白 (表达HER2蛋白的细胞) [2]): 251 倍
binding result (HER2抗原合成多肽 (SEQ ID No.1)): binds
B1: 246G0D3抗HER2重组兔单克隆抗体 (antibody, V domains shown)
VH: QSVEESGGRLVTPGTPLTLTCTVSGFSLSSYAMSWVRQAPGKGLEYIGIIRSSGSTYYASWAKGRFTISKTSTTVDLKLTSPTSEDTATYFCCRGSPGSGSGYSVLWGQGTLVTVSS
VL: AAVLTQTPSPVSAAVGGTVSISCQSSKSVYNNNCLAWYQQKPGQPPKLLIYGASTLASGVPSRFKGSGSGTQFTLTISDVQCDDAATYYCAGGYTDDSDDGFGGGTEVVVK
notes: also called 246G0D3抗体; 246G0D3抗HER2单克隆抗体
